Experimental data reported in the DeepSol protein solubility set.

Experiment: soluble on expression in E. coli; label from the status in PepcDB or PDB records

Row | Sequence | soluble on expression in E. coli
1 | MLKFRASFLSLALMLAVPFAPQAVAKTAATTAASQPEIASGSAMIVDLNTNKVIYSNHPDLVRPIASITKLMTAMVVLDARLPLDEILKVDISQTPEMKGVYSRVRLNSEISRKNMLLLALMSSENRAAASLAHYYPGGYNAFIKAMNAKAKALGMTHTRFVEPTGLSIHNVSTARDLTKLLIATKQYPLIGQLSTTREDMATFSHPAYTLPFRNTNHLVYRDNWNIQLTKTGFTNAAGHCLVMRTVINNKPVALVVMDAFGKYTHFADASRLRTWIETGKVMPVPAAALSYKKQKAAQMAAASASAGAQTAQND | not soluble
2 | MVTFKLNDEFMFGTATASTQIEGGDTGNTWYKWCQEGRIKDSSSCITACDHWNRVEEDTELLKNLGVQTHRMSLEWSRIEPSRGKFSDDAMKHYRDEIKLLVENNIKPLVTLHHFSEPIWFHEMGGWKKTGNADIFIEYVKYVVENLGDLVSDWVTFNEPNVYVDFGYVIGIFPPGERSLSEGLKVTAELINTHVKLYRLIHRIRRERKFAGRTMVGTAMHLRIFDGISSTGKMIAKVVDYLFNEMFMEGMTTGHMMFPLSKKGSSHKKGRYADFLGINYYTRNIVEFVFDPSLYFHELVCDKDLTKSDLGWDIYPEGIYKVCKRYYKKYKLPIYITENGISDKNDTKRPSFIASHLAYIAKAIKEGIPIERYYYWTLMDNFEWLEGESTDFGLYDCNFRTQERIPRKSVRLYEQICRRKELTAEMIEDFKKYSGITIETIR | soluble
3 | MGSDKIHHHHHHMSKAMISRENYLQQLIQFKDTDFIKVISGVRRSGKSVLLMQYRDYLQQQGIASENILYLNFESFEYQWVKDAQDFQQLIQEKMPSSQEKIYFLIDEIQFVEGWQKIVNALRVSFNTDIVITGSNANLLSGELATLLSGRYVEIKIYPLSFKEFLHAKNVDSQSRLVDKLYSEYEKYGGFPSVVMADEPLKETILSGIFDSIVLNDIAHRAGVKDTHILKSVILFLADNVGQLVNPSKISNTLTSERVPTSNHTISKYLDLLENAFLFYKAKQYDIRGKGYLKTNAKYFIVDNGLRRHAIGKKGANYANRLENIVFIELLRRGYSVDVGKLDSKEIDFIARKADEILYVQVAFEIPENTHETDNLLHIKDNYKKILITGKYYEQTEIDGIEVIYVVDWLLQ | not soluble
4 | MASYKKERLENDIIRLINRTVIHEIYNETVKTGHVTHVKLSDDLLHVTVYLDCYNREQIDRVVGAFNQAKGVFSRVLAHNLYLAKAVQIHFVKDKAIDNAMRIESIINSLKKSKPN | soluble
5 | MAHHHHHHMEDMYEMQHSNLRCLPENYNLRYYYYHLLSWPQLLYVQQDYNRNTVGYVLGKMDDEEVPDKKHGHITSLAVLRSHRKLGIASRVMRATMKEMDAEYGAHYCSLHVRKTNDAALHLYQDTLGFRCVGVEEKYYMDEEDAYHMKSFFHQANPGSYVDDHKRLIRKTVPGELEGGPAAAGASSPAVGGRGGDKNGKRGNDKAAKEISAKEREAAMAELLGLEVGGKGRAAGGGAGGKGKSGNSSGGGGKRGSGRQK | soluble
6 | MDPLLTVLKERMRACQRRVSDRPRRQVVAIEWIDPPMASGNWIPELIALAGGENMLGTAGKHSPYIEWSTLLAIDPEVILVMPCGFDLERTRQELDQALQTYPQWQQLRALQTGQLYILDGNAYFNRPGPRLVDSLEILVEILHPCPEPKFHGVGWRPYVGPSMAKMSDEGLEHHHHHH | not soluble
7 | SAMNGFERELQSRVLSVIPHGELEGVNGPLQNYTKTMNQALQHEHVVAAAPYVRFTGLAEKGSKLKAIEVRGVDPAYEQAVSSMSDFIDPEAWQNFYSGQQQVILGRGVANELKVQVGDYVTLMIPQTGGTNKVQAPKRVRVKVAGFLTLNGQIDHSLALVPLADAQQYVRLGDGVTGISLKTDDVLDAPSIVREVGNLVNVYVYLKSWQQQFGFLYRDIQLVRT | soluble
8 | RIDNRNDEILRITGNPYHPLSHQQHIPFETPVKDAYLSLAGEAGLDGRSTACARGNGMLEIRNSPYRITQPLKRVGKRGEGKWIPISYEQLIEEVVEGGDLFGEGHVDGLRDIRDLTTPVDPENPEYGPKANQLLMTNAGNEGRDDIFKRFAFNSYGTRNFGHHGSYCGYAFRAGSGAFMNDLDKNAHLKPDFDNAEYIIFIGMSPAQAGNPFKRQARQLANARTEGSLE | not soluble
9 | MGSDKIHHHHHHADTASFLFDKYEDAQVLLRAGGELKSKMNYSIVVNKFYFIDPQDKQVKELANPGDILLIKIAGRTFYPESNGAGIEMLPTKPVVYVQYKATARKEAPMGAYGTRSETTAVQSYGTITSNGQSYKLEGEKIIVSNRHHVYWVEKDDKMKQFRNFKQLAKIYSKHRAEVEKYIEDNKVNFEDVDQIVKLCAYADSLK | not soluble
10 | MSHRKALLIHNGNAANKNIEKALGAVVPVLSHHLDEVIIKQTKKKDHAYHFCRSIDDSVDTVFILGGDGTIHQCINAISALERKPAVGILPGGTSNDFSRVLGIPQNLAKAAEALMAGKKTSVDVCQMNDRYFLNFWGIGLIAETSNQINETEKALLGKISYFTSALRTVSSAASFPMTLKIDGEEIKEEAVMLLVMNGQYIGTNRIPLPDASIEDGLLDVLICRNTNLTALRELMSMEQGSIDRFTGELSYVQASRIEIETDTAKKADMDGEVYTHTPAVIQVLPQHIDMLVPANE | soluble
11 | MAASRDIFAPDFRRRPYWWEGYEPPECGEDTLPASADVAIVGGGYTGVCCALALREAGIEAVVLEAGRPGEGASTRSGGQVSGGVNVQKKALAAVGESAGQRAERLAARLRDAAASMAYVESLIERYAIECGWRRTGRLTTMWVPAHYQSWQARLDQLNACTGSQARMIPREELAAEIGSSVYHGAALIEHAGHLQPAQLYGGMLRAARDAGARVLGRTPVERIERRAGGYDVHTARGTVRAGQVVIATIGYTGANLGGLKRRIVPVCTHMIATEALPPDLAASLLPTNRAVSESRRVVNHYRLSPDGRRLLFGGRARFVPTDEATTARLLYRAMLKRFPQLAGTRITHSWGGNVAMTLDSMPHIGGADGLHYALGCNGSGVAMMSYLGHCVGRKIATQSGEPINAFDMGEIPGHPFYFGNPWFLFAIGSWYQARDAYDHWRARLEHHHHHH | soluble
12 | MAHHHHHHMNHVRHALDMDNEYTMVLDIGTIRRPAAQHRSESFMAASTTEWETKVERAERLSLLEGKKGCCYFSLYPEDVSAAFHEDAKSFPDVFSVEDAFVHCARLNLPMGEVAALLPAIPTETAEQVMHNLAEKCVIASPQSLAMTFLGEMSARLPVDLDIASFIIGGCNVGLGEAAVAIGSVAALPFRSITPLTYSSVPWNEATTWSREKYAGDIARHSDLLADTLVFIEWLKLRARGESTAEFLNTILVQEFKFVKIEGLMKYIREQLTNYVFLDRFDTLELLEDVSTSVQENSTIFLFLQAVALARRAAFIRDAGHLNEKDRYASMAFVRTSKRLMPHNYIPSSIKWDTGRILIPVILKNSTNILAGLFSLIHTPYFFASLLLLYPYVEYSKPVITDKGRVVYFGVSCNRQMKRFMVSIEEAAQILDFREKINLALSCMQALRTLSHPILKTKFLLILKKHDRLFDVERLHKNIRSQLLELVTELNVTEHQGSFETFATHCTAPKELLPMTDTPAMDVSVLRRFVDGTLWDSLPTPGSVVKPRAASFAGTPSTLPSAPLISTNDEDDDEEVEIIQDSYFMRHGPLIEDDDDD | not soluble
13 | MFKLVGKEAFKVGDMKCIINVEALGTFAYEYSLDVNGKTFNKFKEEQNKRLHSWETTLSGHQWRVVLDKESMEIWANGNNIDTAGEFVDNGTVTHFELGKNPCKIIAQSSGKKKTGVTHTLYVNGEIVPSTVDKPNPSNQPGSS | not soluble
14 | RCFRLEQTQKDARVVSVHAAMSGRSTIGEQQGHSISWRRRLSRANTWPSAAKAQAYITNVATPALTQVAEELCRKGINARLVTTKTQAVEGLDLIVEMGSEQNFRYQLFPVCNPVPQFTRKANASEKETYYRLEVCDLTGSLGYDIYGYTQEQLIDNVLDLYERHLEFLHMHSDLPGSSDLSDGATPPLFS | not soluble
15 | MSLKITSIETIPIKVPIKPEFAIRSGRGGSHVVSPFLLVKVHTDAGITGLGEVSCTPRWSGEDQVSAAHFIKTYLAPLLEGEDPRQIESLTAKFRLGVAGNFFTKSGIEMALWDIAGKAAGKPVYELLGGTVREFIPTKWSVSGQEPDKAADIARWAVAQGFKAMKVKVGIEPDKDVARVAAVRAAIGSQIKLGVDANGGWSREVAASTIERLYASSIYFAEQPIPPEDLLYLPELRKQLKVPIIADESIYSLQDAMTLAHLQAADVFSIYVGKAGGIGPARKIAQFAESVGLKCTVGSNLELGIGSAAMIHLAIATHAIDAESYPCDIIGPMFYEDDMLVEPLPIVAGKAQPNSKPGLGVELNEKTVEKYRVCEGHHHHHH | soluble
